Target: G protein-coupled bile acid receptor 1 (GPBAR1), full length, with N-terminal FLAG and BRIL (human) (UniProt Q8TDU6)
Test: mass photometry

Chain of UniProt Q8TDU6 (Q8TDU6 whole entry): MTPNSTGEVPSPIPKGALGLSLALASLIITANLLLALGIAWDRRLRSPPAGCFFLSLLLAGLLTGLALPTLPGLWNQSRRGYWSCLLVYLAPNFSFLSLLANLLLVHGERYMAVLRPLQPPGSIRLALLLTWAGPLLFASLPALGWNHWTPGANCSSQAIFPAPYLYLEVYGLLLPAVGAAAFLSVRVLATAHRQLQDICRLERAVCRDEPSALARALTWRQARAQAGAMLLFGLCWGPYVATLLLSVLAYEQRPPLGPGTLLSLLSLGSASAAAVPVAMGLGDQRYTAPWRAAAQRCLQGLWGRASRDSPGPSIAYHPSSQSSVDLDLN

stoichiometry N: 1
Substance: Heterotrimeric Gs (Gαs, Gβ1, Gγ2) (from UniProt P63096 1-18; P63092 16-394; P62873 2-340; P59768 1-71) (complex)

From publication doi:10.1101/2024.10.21.619395
